Measured values reported in patent US20060293221A1.

Key:
[1] = molecular target: Mucin I: Crude mucin, type II from porcine stomach (Sigma)
[2] = molecular target: Mucin I: Crude mucin, type II from porcine stomach (Sigma); remark: listed apart in the source
[3] = molecular target: Mucin I: Crude mucin, type II from porcine stomach (Sigma); remark: listed apart in the source

Substance | Elastic modules G' (Pa) at 1 Hz, oscillatory measurement [1] | viscosity, rheometer, constant rate (stress versus shear rate) [2] | viscosity, rheometer, comparison of four TFF2 peptides (7.05 mg in 2 ml 10% mucin I) [3]
glycosylated recombinant human Asn99-TFF2 (from UniProt Q03403) (ligand) | 17 Pa | 10 factor | 0.8 Pa s
non-glycosylated recombinant human Asn99-TFF2 (from UniProt Q03403) (ligand) | – | – | 0.54 Pa s
